Laboratory results from patent US20210132065A1, “MAMMALIAN MHC PEPTIDE DISPLAY AS AN EPITOPE SELECTION TOOL FOR VACCINE DESIGN” (ETH Zürich, priority 2018, published 2021).
“Also recorded” adds a separate entry of the source. Like-named read-outs stand apart in the source and are kept apart here. Where no end group is shown, it is not given here.

Legend:
[1] = biological target: HLA-DRB5_1 (Homo sapiens, UniProt P01903+Q30154); type: cell-based; conditions: for MCR surface expression: peptide covalently linked to beta chain, anti-HLA-DR APC antibody, FACS
[2] = biological target: HLA-DRB1_15 (Homo sapiens, UniProt P01903+P01911); type: cell-based; conditions: for MCR surface expression: peptide covalently linked to beta chain, anti-HLA-DR APC antibody, FACS
[3] = FIG. 6, anti-CD3e or anti-HLA-DR PE antibodies, peptides containing the core epitope with different flanking regions

Chain of HLA-DRB5_1 (Q30154 30-227 limits assumed): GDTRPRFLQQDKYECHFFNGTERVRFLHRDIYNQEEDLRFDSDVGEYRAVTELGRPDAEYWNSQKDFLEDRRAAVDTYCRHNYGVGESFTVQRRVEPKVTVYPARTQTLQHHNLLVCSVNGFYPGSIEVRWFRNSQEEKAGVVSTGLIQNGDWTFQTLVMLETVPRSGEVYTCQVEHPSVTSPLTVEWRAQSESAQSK
Chain of HLA-DRB5_1 (P01903 26-216 limits assumed): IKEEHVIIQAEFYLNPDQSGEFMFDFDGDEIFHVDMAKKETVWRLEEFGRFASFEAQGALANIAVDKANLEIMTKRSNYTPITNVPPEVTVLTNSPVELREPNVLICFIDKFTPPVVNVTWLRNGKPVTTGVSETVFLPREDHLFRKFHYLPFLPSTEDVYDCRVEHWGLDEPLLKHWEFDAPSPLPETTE
Chain of HLA-DRB1_15 (P01911 30-227 limits assumed): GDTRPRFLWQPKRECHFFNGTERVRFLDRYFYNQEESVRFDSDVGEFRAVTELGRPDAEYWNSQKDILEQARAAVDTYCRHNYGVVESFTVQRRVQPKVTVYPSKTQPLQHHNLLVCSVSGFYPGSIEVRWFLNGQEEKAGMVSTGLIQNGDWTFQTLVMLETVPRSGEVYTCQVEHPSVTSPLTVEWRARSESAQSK
Chain of HLA-DRB1_15 (P01903 26-216 limits assumed): as the sequence (P01903 26-216 limits assumed) above

| Substance | presentation (MCR surface expression) [1, 3] | presentation (MCR surface expression) [2, 3] | MCR surface expression [1] | MCR surface expression ([1]; listed as MP1103-121) | MCR surface expression [2] | MCR surface expression ([2]; listed as MP1103-121) |
| --- | --- | --- | --- | --- | --- | --- |
| MP1107-117: core epitope of influenza Matrix Protein 1, amino acids 107-117, tested within peptides with different flanking regions (ITFHGAKEISL; UniProt P03485 107-117, looked up, fragment) | nor HLA-DRB5_1 | not by HLA-DRB1_15 |  |  |  |  |
| MP1103-120: influenza Matrix Protein 1 peptide, amino acids 103-120, covalently linked to the HLA beta chain of the MCR (LKREITFHGAKEISLSYS; also: covalently linked to HLA beta chain of the MCR; UniProt P03485 103-120, looked up, fragment) |  |  | barely detected; also recorded: not expressed at all | not to bind at all | detectable at very low levels; also recorded: very low MCR expression | low surface expression |
| MP162-72: influenza Matrix Protein 1-derived peptide comprising amino acids 62-72, covalently linked to the HLA beta chain of the MCR (FVFTLTVPSER; also: covalently linked to HLA beta chain of the MCR; UniProt P03485 62-72, looked up, fragment) |  |  | efficient expression |  | not the other HLAs tested |  |
